Results from patent US8632772B2, “Methods of treating multiple myeloma using combination therapies based on anti-CS1 antibodies” (Dana-Farber Cancer Institute, priority 2006, dated 2014).

B1: HuLuc63: humanized recombinant monoclonal IgG1 antibody directed to human CS1; heavy chain variable region SEQ ID NO: 5, light chain variable region SEQ ID NO: 6 (antibody, listed as Homo saiens, listed as Homo sapiens, V domains shown)
VH: EVQLVESGGGLVQPGGSLRLSCAASGFDFSRYWMSWVRQAPGKGLEWIGEINPDSSTINYAPSLKDKFIISRDNAKNSLYLQMNSLRAEDTAVYYCARPDGNYWYFDVWGQGTLVTVSS
VL: DIQMTQSPSSLSASVGDRVTITCKASQDVGIAVAWYQQKPGKVPKLLIYWASTRHTGVPDRFSGSGSGTDFTLTISSLQPEDVATYYCQQYSSYPYTFGQGTKVEIK

Tests used:
[1] = system: myeloma cell lines; experiment: calcein-AM release ADCC assay, myeloma cell lines, effector cells pretreated with lenalidomide; type: cell-based, human
Description: (§1) ADCC was measured by calcein-AM release assay, with sensitivity similar to traditional Cr^51 assay, as described previously. After informed consent, peripheral blood mononuclear cells (PBMCs) including natural killer (NK) effector cells were isolated from leukopheresis products of normal donors or peripheral blood from MM patients. Increasing concentrations (0-10 μg/ml) of either HuLuc63 or human isotype control IgG1 MSL109 mAbs were added at effector:target (E:T) ratios of 20:1, in a final volume of 200 μl per well. In some experiments, PBMC effector cells were pretreated with lenalidomide for 3 days at 0.2 μM before HuLuc63-mediated ADCC assays were performed. After 4 h incubation, 100 μl culture supernatants were transferred to a Black ViewPlate™-96 plate and arbitrary fluorescent units (AFU) were read on a fluorometer (Wallac VICTOR2). This assay is valid only if (AFU mean maximum release−medium control release)/(AFU mean spontaneous release−medium control release)>7. Calculation of % specific lysis from triplicate experiments was done using the following equation: […]
HuLuc63-mediated lysis of patient myeloma cells by PBMC effector cells from the same patient was measured using an ADCC assay. […]

[2] = system: patient MM cells; experiment: calcein-AM release ADCC assay, autologous patient MM cells with PBMC effector cells; type: cell-based, human
Description: as §1
HuLuc63-mediated lysis of patient MM cells by effector cells from the same patient was measured using an ADCC assay.
HuLuc63-mediated lysis of patient myeloma cells by PBMC effector cells from the same patient was measured using an ADCC assay. CD138-purified tumor cells from a patient with MM were incubated with autologous effector cells in the presence of serial dilutions of HuLuc63 (solid symbols) or isotype control IgG1 (open symbols). PBMC effector cells were pre-incubated for 3 days in the presence or absence of with lenalidomide […] (square symbols) or vehicle control (round symbols), followed by HuLuc63-mediated ADCC. […] Similarly, pretreatment of effector cells with lenalidomide enhanced HuLuc63-induced lysis of myeloma cell lines (FIGS. 3A and 3B).

[3] = system: OPM2 tumor; experiment: OPM2 xenograft mouse model, second experiment (clinic-like bortezomib schedule); type: in vivo, mice; settings: HuLuc63 1 mg/kg ip twice a week, 10 doses; bortezomib 1 mg/kg ip twice weekly weeks 1, 2, 4, 5
Description: In a second experiment, HuLuc63 was combined with bortezomib in vivo, using a different dose and dosing schedule for bortezomib, while keeping the original HuLuc63 dose and dosing schedule. OPM2 cells were inoculated into the flanks of SCID mice. When tumors reached an average size of about 100 mm3, animals were randomized into 4 groups of 15 mice each and were treated with 1 mg/kg of antibody administered intraperitoneally twice a week for a total of 10 doses. Bortezomib was administered intraperitoneally at a dose of 1 mg/kg twice for weeks 1 and 2, no treatment for week 3, and 1 mg/kg twice for weeks 4 and 5 for a total of 8 doses. The intent for this dosing schedule was to more closely mimic the dosing schedule of bortezomib in the clinic, where each treatment cycle consists of 2 weeks of dosing, with one week off. Tumor growth was monitored for a period of 1-2 months.

[4] = system: OPM2 myeloma cells; experiment: 51Cr release ADCC assay, OPM2 cells with NK cells from healthy donors; type: cell-based, human; settings: bortezomib 10 nM, 18 hrs; NK effector cells from healthy donors
Description: OPM2 myeloma cells were harvested at mid-log phase, suspended at a density of 1.0×10^6 cells/mL in complete media (RPMI with 10% FBS) and treated overnight with or without Velcade (10 nM). Cells were collected, washed, re-suspended at a density of 20×10^6 viable cells/mL, and labeled for one hour with […] Na2[^51Cr]O4 per 10^6 cells. ^51Cr-Labeled cells were washed then added to a 96-well V-bottomed polystyrene plate at a cell density of 15,000 cells per 75 μL RPMI supplemented with 10% heat-inactivated FBS. HuLuc63 and a human IgG1 isotype control antibody MSL-109 were added to target cells for a final antibody concentration ranging from 0.001 to 10 μg/mL. NK cells were enriched from the whole blood of healthy donors using the RosetteSep human NK cell enrichment cocktail (Stem Cell Technologies). The enriched NK cells were added to Velcade treated or untreated OPM2 cells at a ratio of 10:1. After a 4-hour incubation at 37° C., cells were centrifuged and the supernatants measured for released ^51Cr. Maximum release was determined from target cells lysed with […] Digitonin. Antibody independent cellular cytotoxicity (AICC) was determined using target cells, plus media, plus NK cells, while spontaneous lysis was determined using ^51Cr-labelled cells plus media without NK effectors. % Cytotoxicity was calculated as ((sample−AICC)/(Maximum−AICC)*100. […]

[5] = system: MHC class I; settings: bortezomib treatment of myeloma cells; cited from earlier work
[6] = system: CS1; experiment: CS1 protein expression on OPM2 cell line (flow cytometry); type: cell-based, human; settings: OPM2 multiple myeloma cell line
Description: The effect of HuLuc63 and bortezomib treatment on expression of CS1 in MM cell lines and mouse xenograft tumors was examined by flow cytometry and immunohistochemistry respectively.
The combination of HuLuc63 with bortezomib was then tested for anti-myeloma activity in vitro using ADCC assays. […] OPM2 cells were pretreated with vehicle control (square symbols) or bortezomib (10 nM; round symbols) for 18 hrs and were then subjected to HuLuc63 mediated ADCC using human NK cells from healthy donors. HuLuc63 (closed symbols) and isotype control antibody (open symbols) were used at doses ranging from 0.001-10 μg/ml.

[7] = system: OPM2 tumor; experiment: OPM2 xenograft mouse model, first experiment; type: in vivo, mice; settings: HuLuc63 1 mg/kg ip twice weekly, 6 doses; bortezomib 0.75 mg/kg ip twice a week
Description: Six- to eight-week old female IcrTac:ICR-Prkdc^scid mice obtained from Taconic Farms (Germantown, N.Y.) were inoculated with 1×10^7 OPM2 (American Type Culture Collection) cells into the lower right flank. Caliper measurements were performed twice weekly to calculate tumor volume using the following formula: L×W×H/2, where L (length) is the longest side of the tumor in the plane of the animal's back, W (width) is the longest measurement perpendicular to the length and in the same plane and H (height) is taken at the highest point perpendicular to the back of the animal. When tumors reached an average size of about 100 mm^3, animals were randomized into 3 groups of 8-10 mice each and were treated with 1 mg/kg of antibody administered intraperitoneally twice a week for a total of 6 doses. […] Tumor growth was monitored for a period of 1-2 months.

[8] = system: myeloma cells; settings: cited from earlier work
[9] = system: myeloma tumor; settings: myeloma mouse tumor model; cited from earlier work

Row | Molecule | effect of pretreatment of effector cells on HuLuc63-induced lysis of myeloma cell lines [1] | effect of pre-incubation of PBMC effector cells on HuLuc63-mediated ADCC activity, autologous patient sample ([2]; lenalidomide (0.2 µM) for 3 days before ADCC) | anti-tumor activity [3] | effect of pre-treatment of OPM2 cells on HuLuc63-mediated ADCC [4] | cell-surface expression of MHC class I on myeloma cells [5] | change in CS1 expression pre- or post-treatment [6] | anti-tumor activity [7] | lysis of myeloma cells via ADCC [8] | reduction of tumor mass [9] | autologous myeloma cell lysis (ADCC) ([2]; patient MM cells with effector cells from the same patient, 0-10 μg/ml, E:T 20:1) | autologous tumor cell lysis in patients with MM resistant or refractory to bortezomib and/or 17-AAG ([2]; resistant or refractory patient tumor cells, autologous effector cells)
1 | Nc1cccc2c1CN(C1CCC(=O)NC1=O)C2=O (stereo not shown) [lenalidomide, reference compound] | enhanced | significantly increased the ADCC activity | – | – | – | – | – | – | – | – | –
2 | CC(C)C[C@H](NC(=O)[C@H](Cc1ccccc1)NC(=O)c1cnccn1)B(O)O [bortezomib, reference compound] | – | – | significant anti-tumor activity | significantly enhanced | down-modulation | no significant change | – | – | – | – | –
3 | B1 | – | – | significant anti-tumor activity | – | – | no significant change | significant anti-tumor activity | effectively mediates lysis | more than 50% | induced significant autologous myeloma cell lysis | demonstrated
